From US20040038304A1 (CATALENT PHARMA SOLUTIONS, published 2004)

Biological target: T1, CEA antigen (UniProt P06731 35-685, limits assumed)
T1 sequence (looked up): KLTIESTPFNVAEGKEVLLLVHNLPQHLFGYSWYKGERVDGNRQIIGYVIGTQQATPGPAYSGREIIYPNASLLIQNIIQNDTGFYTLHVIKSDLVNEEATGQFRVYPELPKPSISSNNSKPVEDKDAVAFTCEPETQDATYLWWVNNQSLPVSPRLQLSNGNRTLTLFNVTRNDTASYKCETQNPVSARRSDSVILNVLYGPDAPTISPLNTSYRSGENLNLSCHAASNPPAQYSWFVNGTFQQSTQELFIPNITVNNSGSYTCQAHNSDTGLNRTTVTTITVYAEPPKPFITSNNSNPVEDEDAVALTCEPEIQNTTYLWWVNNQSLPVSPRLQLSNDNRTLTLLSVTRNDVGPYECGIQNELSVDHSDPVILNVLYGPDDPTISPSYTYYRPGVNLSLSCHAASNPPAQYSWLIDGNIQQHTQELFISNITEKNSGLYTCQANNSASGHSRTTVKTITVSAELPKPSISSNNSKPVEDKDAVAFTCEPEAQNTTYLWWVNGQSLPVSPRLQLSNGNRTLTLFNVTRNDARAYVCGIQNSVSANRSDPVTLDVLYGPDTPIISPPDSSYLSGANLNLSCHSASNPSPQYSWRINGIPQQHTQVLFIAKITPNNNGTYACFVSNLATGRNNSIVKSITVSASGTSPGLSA
Assay: ELISA, plates coated with CEA antigen; MN14 as the standard
Method: Single colonies were made and from an initial 50 clones, 38 viable clones were obtained. The supernatants of these clones were analyzed for human kappa light chain, human Fc (IgG) and CEA antigen binding. For the huLC and huFc assay, the plates were coated with anti-huFab, for the CEA binding assay, the plates were coated with CEA antigen. All values are in ng/ml. Purified MN14 was used as a standard.

B1: MN14 antibody (antibody, V domains shown)
VH: EVQLVESGGGVVQPGRSLRLSCSASGFDFTTYWMSWVRQAPGKGLEWIGEIHPDSSTINYAPSLKDRFTISRDNAKNTLFLQMDSLRPEDTGVYFCASLYFGFPWFAYWGQGTPVTVSS
VL: DIQLTQSPSSLSASVGDRVTITCKASQDVGTSVAWYQQKPGKAPKLLIYWTSTRHTGVPSRFSGSGSGTDFTFTISSLQPEDIATYYCQQYSLYRSFGQGTKVEIKR
notes: Purified MN14 used as the standard of the assays; also called Purified MN14
- binding result: binds
